Source: paper PMC6535718 (2019)

Molecular target: T1, Bfd (Pseudomonas aeruginosa, UniProt Q9HY80)
T1 chain: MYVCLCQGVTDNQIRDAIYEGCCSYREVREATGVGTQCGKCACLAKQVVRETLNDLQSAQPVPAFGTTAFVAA
Assay: SPR

B1: BfrB (protein)
chain: not shown
modifications: apo-BfrB (heme-free)
- Kd: 3.1 µM
